According to paper PMC7939477:

Molecular target: PdGH110B (GH110 family α-1,3-galactosidase from Pseudoalteromonas distincta U2A) (Pseudoalteromonas distincta U2A)
Assay: dynamic light scattering; PdGH110B in solution at protein concentrations of 0.18, 0.37 and 0.73 mg/ml; monomer to dimer

How did the stoichiometry N turn out when “PdGH110B (GH110 family α-1,3-galactosidase from Pseudoalteromonas distincta U2A) (enzyme)” was run?
Its stoichiometry N is 2.
